Measured values as given in PMC6138665.

Assays:
LC3B [1] = target: LC3B (UniProt Q9GZQ8); assay: co-immunoprecipitation of Myc-AMBRA1, LC3 blot; settings: reference: Myc-AMBRA1 wild type; sites S1014
GABARAP-L1 = GABARAP-L1 (UniProt Q9H0R8); assay: ITC, peptide titrated into GABARAP-L1; settings: reference: unphosphorylated peptide P0; sites S1014
LC3C = LC3C (UniProt Q9BXW4); assay: ITC, peptide titrated into LC3C; settings: reference: unphosphorylated peptide P0; sites S1014
LC3B [2] = target: LC3B (UniProt Q9GZQ8); assay: NMR HSQC titration of 15N-LC3B; settings: reference: unphosphorylated peptide P0; sites S1014
LC3A = LC3A (UniProt Q9H492); assay: ITC, peptide titrated into LC3A; settings: reference: unphosphorylated peptide P0; sites S1014
GABARAP-L2 = GABARAP-L2 (UniProt P60520); assay: ITC, peptide titrated into GABARAP-L2; settings: reference: unphosphorylated peptide P0; sites S1014
GABARAP-L2, sequence (P60520 whole entry, looked up): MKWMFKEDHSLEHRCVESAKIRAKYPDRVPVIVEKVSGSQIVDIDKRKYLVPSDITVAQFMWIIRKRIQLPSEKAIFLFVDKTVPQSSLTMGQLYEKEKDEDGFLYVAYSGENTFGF

LC3C, sequence (Q9BXW4 whole entry, looked up): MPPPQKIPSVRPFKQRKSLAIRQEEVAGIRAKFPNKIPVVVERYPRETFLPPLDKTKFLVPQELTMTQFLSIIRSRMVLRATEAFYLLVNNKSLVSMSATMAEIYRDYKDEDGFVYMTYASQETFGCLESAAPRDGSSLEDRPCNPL
GABARAP-L1, sequence (Q9H0R8 whole entry, looked up): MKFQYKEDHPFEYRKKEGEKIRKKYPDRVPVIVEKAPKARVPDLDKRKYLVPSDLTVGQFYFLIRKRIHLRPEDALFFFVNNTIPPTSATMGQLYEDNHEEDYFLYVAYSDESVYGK

Substance | binding against the reference (LC3B [1]) | binding against the reference (GABARAP-L1) | binding against the reference (LC3C) | binding against the reference (LC3B [2]) | binding against the reference (LC3A) | binding against the reference (GABARAP-L2)
AMBRA1 (from UniProt Q9C0C7-3) S1014A | weaker | – | – | – | – | –
AMBRA1 AMBRA1-LIR (from UniProt Q9C0C7-3) pS1014 peptide P1 | – | stronger | stronger | stronger | stronger | stronger
